Source: paper PMC9478674 (Proceedings of the National Academy of Sciences of the …, 2022)

Target: T1, KaiC S431E;T432A (KaiC-EA) (UniProt Q79PF4 1-519, S431E | T432A)
T1 sequence (looked up): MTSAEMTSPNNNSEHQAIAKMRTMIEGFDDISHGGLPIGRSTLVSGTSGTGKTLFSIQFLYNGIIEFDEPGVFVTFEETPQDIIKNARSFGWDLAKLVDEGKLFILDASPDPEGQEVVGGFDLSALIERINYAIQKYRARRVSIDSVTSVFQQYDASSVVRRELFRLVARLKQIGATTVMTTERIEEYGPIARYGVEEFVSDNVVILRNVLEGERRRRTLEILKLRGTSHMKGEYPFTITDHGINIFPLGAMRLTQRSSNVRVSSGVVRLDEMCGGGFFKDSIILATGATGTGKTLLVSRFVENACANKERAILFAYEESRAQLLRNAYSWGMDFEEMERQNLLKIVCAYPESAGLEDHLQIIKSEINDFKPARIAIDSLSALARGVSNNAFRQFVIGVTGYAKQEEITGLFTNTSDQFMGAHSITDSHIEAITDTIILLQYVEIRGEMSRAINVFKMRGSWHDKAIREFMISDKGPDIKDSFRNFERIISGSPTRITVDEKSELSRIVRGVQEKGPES
Assay: co-IP

binding result: binds
B1: wildtype KaiB-FLAG (natural protein, UniProt Q79PF5 1-102, looked up)
chain: MSPRKTYILKLYVAGNTPNSVRALKTLKNILEVEFQGVYALKVIDVLKNPQLAEEDKILATPTLAKVLPLPVRRIIGDLSDREKVLIGLDLLYGELQDSDDF
